Experimental data from ChEMBL document CHEMBL2074002, “Functional analysis of a canalicular multispecific organic anion transporter cloned from rat liver” (J Biol Chem, 1998).

Substrate: N[C@@H](CCC(=O)N[C@H](CSc1ccc([N+](=O)[O-])cc1[N+](=O)[O-])C(=O)NCC(=O)O)C(=O)O
Experiment: TP_TRANSPORTER: uptake in membrane vesicle from Mrp2-expressing NIH/3T3 cell
Assay type: functional, cell membranes, NIH3T3

B1: ATP-binding cassette sub-family C member 2 (Rattus norvegicus) (protein)
chain: MDKFCNSTFWDLSLLESPEADLPLCFEQTVLVWIPLGFLWLLAPWQLYSVYRSRTKRSSITKFYLAKQVFVVFLLILAAIDLSLALTEDTGQATVPPVRYTNPILYLCTWLLVLAVQHSRQWCVRKNSWFLSLFWILSVLCGVFQFQTLIRALLKDSKSNMAYSYLFFVSYGFQIVLLILTAFSGPSDSTQTPSVTASFLSSITFSWYDRTVLKGYKHPLTLEDVWDIDEGFKTRSVTSKFEAAMTKDLQKARQAFQRRLQKSQRKPEATLHGLNKKQSQSQDVLVLEEAKKKSEKTTKDYPKSWLIKSLFKTFHVVILKSFILKLIHDLLVFLNPQLLKLLIGFVKSSNSYVWFGYICAILMFAVTLIQSFCLQSYFQHCFVLGMCVRTTVMSSIYKKALTLSNLARKQYTIGETVNLMSVDSQKLMDATNYMQLVWSSVIQITLSIFFLWRELGPSILAGVGVMVLLIPVNGVLATKIRNIQVQNMKNKDKRLKIMNEILSGIKILKYFAWEPSFQEQVQGIRKKELKNLLRFGQLQSLLIFILQITPILVSVVTFSVYVLVDSANVLNAEKAFTSITLFNILRFPLSMLPMVTSSILQASVSVDRLERYLGGDDLDTSAIRRVSNFDKAVKFSEASFTWDPDLEATIQDVNLDIKPGQLVAVVGTVGSGKSSLVSAMLGEMENVHGHITIQGSTAYVPQQSWIQNGTIKDNILFGSEYNEKKYQQVLKACALLPDLEILPGGDMAEIGEKGINLSGGQKQRVSLARAAYQDADIYILDDPLSAVDAHVGKHIFNKVVGPNGLLAGKTRIFVTHGIHFLPQVDEIVVLGKGTILEKGSYRDLLDKKGVFARNWKTFMKHSGPEGEATVNNDSEAEDDDDGLIPTMEEIPEDAASLAMRRENSLRRTLSRSSRSSSRRGKSLKNSLKIKNVNVLKEKEKEVEGQKLIKKEFVETGKVKFSIYLKYLQAVGWWSILFIILFYGLNNVAFIGSNLWLSAWTSDSDNLNGTNNSSSHRDMRIGVFGALGLAQGICLLISTLWSIYACRNASKALHGQLLTNILRAPMRFFDTTPTGRIVNRFSGDISTVDDLLPQTLRSWMMCFFGIAGTLVMICMATPVFAIIIIPLSILYISVQVFYVATSRQLRRLDSVTKSPIYSHFSETVTGLPIIRAFEHQQRFLAWNEKQIDINQKCVFSWITSNRWLAIRLELVGNLVVFCSALLLVIYRKTLTGDVVGFVLSNALNITQTLNWLVRMTSEAETNIVAVERISEYINVENEAPWVTDKRPPADWPRHGEIQFNNYQVRYRPELDLVLKGITCNIKSGEKVGVVGRTGAGKSSLTNCLFRILESAGGQIIIDGIDVASIGLHDLRERLTIIPQDPILFSGSLRMNLDPFNKYSDEEVWRALELAHLRSFVSGLQLGLLSEVTEGGDNLSIGQRQLLCLGRAVLRKSKILVLDEATAAVDLETDSLIQTTIRKEFSQCTVITIAHRLHTIMDSDKIMVLDNGKIVEYGSPEELLSNRGSFYLMAKEAGIENVNHTEL
Km: 0.175 µM
